Data: patent US20050282743A1, “Molecular interactions in cells” (Arbor Vita Corporation, priority 2001, published 2005)

B1: CSPG4 (chondroitin sulfae proteoglycan 4, melanoma-associated) (peptide)
peptide: ELLQFCRTPNPALKNGQYWV
modifications: not checked
B2: alpha-2A Adrenergic receptor (peptide)
peptide: HDFRRAFKKILARGDRKRIV
modifications: not checked
B3: AdenoE4 typ9 (peptide)
peptide: VGTLLLERVIFPSVKIATLV
modifications: not checked
B4: LPAP (peptide)
peptide: AWDDSARAAGGQGLHVTAL
modifications: not checked
B5: MINT-1 (peptide)
peptide: KTMPAAMYRLLTAQEQPVYI
modifications: not checked

Target: T1, GST-FLJ 10324 PDZ domain 1 [GST: P08515]
T1 chain: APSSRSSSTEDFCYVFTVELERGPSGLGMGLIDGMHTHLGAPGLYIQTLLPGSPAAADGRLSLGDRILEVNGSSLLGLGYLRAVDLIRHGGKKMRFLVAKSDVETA
Assay: G' assay
Further: key of the grades not given here.

Binder | Classification [A450 class]
B1 | 5
B2 | 1
B3 | 3
B4 | 1
B5 | 5

Target: T2, GST-TIP1 PDZ domain 1 (Table 9 insert) (Homo sapiens (Human)), O14907
T2 chain: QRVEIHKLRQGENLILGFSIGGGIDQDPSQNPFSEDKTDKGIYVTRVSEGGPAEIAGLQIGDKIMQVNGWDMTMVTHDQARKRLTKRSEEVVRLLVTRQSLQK
Assay: G' assay

Binder | Classification [A450 class]
B1 | 1
B4 | 5

Target: T3, GST-KIAA0807(S) PDZ domain 1 (Homo sapiens (Human)), Q6P0Q8
T3 chain: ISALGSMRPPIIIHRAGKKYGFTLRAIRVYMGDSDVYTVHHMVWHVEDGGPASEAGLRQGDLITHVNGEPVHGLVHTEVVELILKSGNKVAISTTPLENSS
Assay: G' assay

Binder | Classification [A450 class]
B1 | 1
B2 | 1
B3 | 3
B4 | 5
B5 | 5

Target: T4, GST-HEMBA 1003117 PDZ domain 1 (Homo sapiens (Human)), Q96JH8
T4 chain: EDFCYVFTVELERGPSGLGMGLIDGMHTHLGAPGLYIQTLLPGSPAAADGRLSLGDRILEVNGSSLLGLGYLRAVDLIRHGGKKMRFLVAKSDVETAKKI
Assay: G' assay

Binder | Classification [A450 class]
B1 | 5
B2 | 1
B3 | 3
B4 | 1
B5 | 3

Target: T5, GST-INADL PDZ domain 3 (Homo sapiens (Human)), Q8NI35
T5 chain: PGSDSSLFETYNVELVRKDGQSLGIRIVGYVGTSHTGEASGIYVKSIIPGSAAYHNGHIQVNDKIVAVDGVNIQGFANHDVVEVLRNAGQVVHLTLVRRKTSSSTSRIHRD
Assay: G' assay

Binder | Classification [A450 class]
B1 | 3
B2 | 2

Target: T6, GST-Outer Membrane PDZ domain 1 (Homo sapiens (Human)), P57105
T6 chain: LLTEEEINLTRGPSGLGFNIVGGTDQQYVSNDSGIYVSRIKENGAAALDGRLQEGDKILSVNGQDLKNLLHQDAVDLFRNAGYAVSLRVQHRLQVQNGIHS
Assay: G' assay

Binder | Classification [A450 class]
B1 | 1
B3 | 5

target: GST-KIAA1634 PDZ domain 5 (Homo sapiens (Human)), Q5TCQ9; assay: G' assay
Sequence (Q5TCQ9 other isoform, or with tags, fused parts or gaps): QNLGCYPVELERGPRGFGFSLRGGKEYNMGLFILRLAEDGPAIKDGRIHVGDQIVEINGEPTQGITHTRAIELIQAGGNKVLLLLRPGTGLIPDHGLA

Binder | Classification [A450 class]
B1 | 2

Target: T7, GST-KIAA0382 PDZ domain 1 (Canis lupus familiaris (Dog) (Canis familiaris)), A0A8I3
T7 chain: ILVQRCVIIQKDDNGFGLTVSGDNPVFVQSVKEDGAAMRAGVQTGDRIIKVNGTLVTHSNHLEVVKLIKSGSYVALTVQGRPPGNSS
Assay: G' assay

Binder | Classification [A450 class]
B3 | 1
B4 | 5
B5 | 1

Target: T8, GST-APXL-1 PDZ domain 1 (Homo sapiens (Human)), Q13796
T8 chain: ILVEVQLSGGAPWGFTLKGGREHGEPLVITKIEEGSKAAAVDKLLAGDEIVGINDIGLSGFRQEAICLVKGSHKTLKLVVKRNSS
Assay: G' assay

Binder | Classification [A450 class]
B1 | 3
B2 | 1
B4 | 1

Target: T9, GST-FLJ00011 PDZ domain 1 (Homo sapiens (Human)), Q9H5P4
T9 chain: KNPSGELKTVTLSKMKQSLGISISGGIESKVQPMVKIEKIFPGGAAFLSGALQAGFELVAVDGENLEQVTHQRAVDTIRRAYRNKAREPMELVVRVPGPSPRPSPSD
Assay: G' assay

Binder | Classification [A450 class]
B3 | 1
B4 | 4

Target: T10, GST-LIM Mystique PDZ domain 1 (Homo sapiens (Human)), Q96JY6
T10 chain: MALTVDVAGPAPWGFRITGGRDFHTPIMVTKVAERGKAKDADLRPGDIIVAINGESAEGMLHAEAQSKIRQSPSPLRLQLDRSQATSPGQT
Assay: G' assay

Binder | Classification [A450 class]
B1 | 2
B2 | 1

Target: T11, GST-Syntrophin gamma 1 PDZ domain 1 (Homo sapiens (Human)), Q9NSN8
T11 chain: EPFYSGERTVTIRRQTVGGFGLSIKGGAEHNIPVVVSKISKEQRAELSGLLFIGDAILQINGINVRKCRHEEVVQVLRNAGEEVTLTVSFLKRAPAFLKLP
Assay: G' assay

Binder | Classification [A450 class]
B2 | 2

target: GST-BAI-1 Associated Protein PDZ domain 2 (Mus musculus (Mouse)), Q6RHR9; assay: G' assay
Sequence (Q6RHR9 455-558): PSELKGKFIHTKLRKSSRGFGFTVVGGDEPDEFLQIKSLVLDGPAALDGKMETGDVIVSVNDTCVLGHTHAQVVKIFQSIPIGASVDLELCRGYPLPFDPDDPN

Binder | Classification [A450 class]
B1 | 2
B3 | 5
B4 | 2

target: GST-BAI-1 Associated Protein PDZ domain 6 (Homo sapiens (Human)), Q96QZ7; assay: G' assay
Sequence (Q96QZ7 1143-1233): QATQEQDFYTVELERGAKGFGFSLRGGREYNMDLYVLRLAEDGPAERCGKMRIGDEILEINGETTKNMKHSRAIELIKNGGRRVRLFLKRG

Binder | Classification [A450 class]
B1 | 4
B2 | 3
B3 | 1

target: GST-PAR3 PDZ domain 3 (Homo sapiens (Human)), Q8TEW0; assay: G' assay
Sequence (Q8TEW0 579-681): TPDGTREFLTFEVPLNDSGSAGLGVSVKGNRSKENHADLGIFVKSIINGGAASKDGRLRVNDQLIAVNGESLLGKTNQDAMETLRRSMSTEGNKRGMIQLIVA

Binder | Classification [A450 class]
B1 | 3
B2 | 2
B5 | 5

Target: T12, GST-AIPC PDZ domain 1 (Homo sapiens (Human)), O15018
T12 chain: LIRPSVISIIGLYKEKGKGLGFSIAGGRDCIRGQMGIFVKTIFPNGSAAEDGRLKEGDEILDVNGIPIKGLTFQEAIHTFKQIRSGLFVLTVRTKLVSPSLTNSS
Assay: G' assay

Binder | Classification [A450 class]
B1 | 5
B2 | 2
B5 | 1

Target: T13, GST-MINT1 PDZ domain 2 (Mus musculus (Mouse)), B2RUJ5
T13 chain: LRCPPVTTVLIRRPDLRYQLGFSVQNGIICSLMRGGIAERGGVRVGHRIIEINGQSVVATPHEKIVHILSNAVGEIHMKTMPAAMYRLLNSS
Assay: G' assay

Binder | Classification [A450 class]
B1 | 5
B3 | 2
B4 | 1

Target: T14, GST-MINT1 PDZ domains 1, 2, Q02410
T14 chain: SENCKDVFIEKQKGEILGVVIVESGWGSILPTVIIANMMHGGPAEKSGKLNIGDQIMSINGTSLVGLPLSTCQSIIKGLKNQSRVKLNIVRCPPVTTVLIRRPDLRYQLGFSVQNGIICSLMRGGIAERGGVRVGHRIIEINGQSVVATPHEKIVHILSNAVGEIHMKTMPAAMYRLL
Assay: G' assay

Binder | Classification [A450 class]
B1 | 5
B3 | 2
B4 | 1
B5 | 5

target: GST-Atrophin-1 Interacting Protein PDZ domain 5 (Rattus norvegicus (Rat)), O88382; assay: G' assay
Sequence (O88382 1128-1225): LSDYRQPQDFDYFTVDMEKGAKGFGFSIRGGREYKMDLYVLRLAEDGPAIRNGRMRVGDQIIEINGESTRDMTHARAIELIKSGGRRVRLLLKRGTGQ

Binder | Classification [A450 class]
B1 | 2
B2 | 1
B4 | 2

Target: T15, GST-LIM-RIL PDZ domain 1 (Homo sapiens (Human)), P50479
T15 chain: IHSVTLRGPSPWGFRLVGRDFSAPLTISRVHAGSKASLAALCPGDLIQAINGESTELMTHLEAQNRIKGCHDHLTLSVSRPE
Assay: G' assay

Binder | Classification [A450 class]
B1 | 2
